{"source": "patent US20190085093", "proteins": {"B1": {"name": "matrix metallopeptidase 9 (MMP-9) (protein)", "chain": "APRQRQSTLVLFPGDLRTNLTDRQLAEEYLYRYGYTRVAEMRGESKSLGPALLLLQKQLSLPETGELDSATLKAMRTPRCGVPDLGRFQTFEGDLKWHHHNITYWIQNYSEDLPRAVIDDAFARAFALWSAVTPLTFTRVYSRDADIVIQFGVAEHGDGYPFDGKDGLLAHAFPPGPGIQGDAHFDDDELWSLGKGVVVPTRFGNADGAACHFPFIFEGRSYSACTTDGRSDGLPWCSTTANYDTDDRFGFCPSERLYTQDGNADGKPCQFPFIFQGQSYSACTTDGRSDGYRWCATTANYDRDKLFGFCPTRADSTVMGGNSAGELCVFPFTFLGKEYSTCTSEGRGDGRLWCATTSNFDSDKKWGFCPDQGYSLFLVAAHEFGHALGLDHSSVPEALMYPMYRFTEGPPLHKDDVNGIRHLYGPRPEPEPRPPTTTTPQPTAPPTVCPTGPPTVHPSERPTAGPTGPPSAGPTGPPTAGPSTATTVPLSPVDDACNVNIFDAIAEIGNQLYLFKDGKYWRFSEGRGSRPQGPFLIADKWPALPRKLDSVFEERLSKKLFFFSGRQVWVYTGASVLGPRRLDKLGLGADVAQVTGALRSGRGKMLLFSGRRLWRFDVKAQMVDPRSASEVDRMFPGVPLDTHDVFQYREKAYFCQDRFYWRVSSRSELNQVDQVGYVTYDILQCPED"}}, "key": {"[1]": {"target": "FCHo1-C-3×DDK mutation Δ531-589, O14526", "sequence (O14526 whole entry, looked up, stated change not applied, tested part not stated)": "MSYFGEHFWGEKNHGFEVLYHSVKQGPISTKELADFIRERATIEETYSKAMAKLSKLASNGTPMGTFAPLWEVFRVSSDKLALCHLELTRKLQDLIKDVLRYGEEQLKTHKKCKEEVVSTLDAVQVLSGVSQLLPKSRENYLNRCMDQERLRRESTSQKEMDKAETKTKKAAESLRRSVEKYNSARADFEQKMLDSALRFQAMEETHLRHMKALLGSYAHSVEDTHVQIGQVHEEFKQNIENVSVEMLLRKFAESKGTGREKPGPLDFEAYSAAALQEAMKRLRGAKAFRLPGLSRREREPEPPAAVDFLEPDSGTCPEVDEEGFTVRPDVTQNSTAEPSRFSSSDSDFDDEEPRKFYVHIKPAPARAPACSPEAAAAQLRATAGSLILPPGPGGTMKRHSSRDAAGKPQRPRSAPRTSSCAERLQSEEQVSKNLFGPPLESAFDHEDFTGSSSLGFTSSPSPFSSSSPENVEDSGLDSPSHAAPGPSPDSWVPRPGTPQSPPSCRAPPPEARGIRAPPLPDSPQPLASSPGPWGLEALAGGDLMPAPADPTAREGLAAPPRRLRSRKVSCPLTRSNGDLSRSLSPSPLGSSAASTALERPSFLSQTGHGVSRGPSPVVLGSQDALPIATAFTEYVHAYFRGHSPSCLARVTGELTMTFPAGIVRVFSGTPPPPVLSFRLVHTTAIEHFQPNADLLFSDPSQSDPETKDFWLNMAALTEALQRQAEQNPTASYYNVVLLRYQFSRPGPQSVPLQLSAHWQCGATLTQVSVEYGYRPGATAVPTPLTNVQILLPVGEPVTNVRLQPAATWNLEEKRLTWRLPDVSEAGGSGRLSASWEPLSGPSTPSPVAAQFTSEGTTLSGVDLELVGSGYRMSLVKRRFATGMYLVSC"}, "[2]": {"target": "FCHo1-C-3×DDK mutation Δ563-564, O14526", "sequence (O14526 whole entry, looked up, stated change not applied, tested part not stated)": "as above"}}, "data": [{"protein": "B1", "values": [{"measurement": "zymography of MMP-9 after FLAG immunoprecipitation", "setting": "[1]", "value": "the activity of MMP-9 is suppressed in FCHo1 deletion mutations A563-564 and A531-589 compared with the wild-type"}, {"measurement": "zymography of MMP-9 after FLAG immunoprecipitation", "setting": "[2]", "value": "the activity of MMP-9 is suppressed in FCHo1 deletion mutations A563-564 and A531-589 compared with the wild-type"}]}]}
